Results on 53 substances are retold here after US20170002055A1, “Novel peptides and combination of peptides for use in immunotherapy against ovarian cancer and other cancers” (immatics biotechnologies GmbH, priority 2015, published 2017).

In the test the target is HLA-A*02:01 (Homo sapiens, UniProt P04439, D140Y/D185E/D98H/E176V/E277Q/G131W/G231S/I119V/I121R/I166T/I218V/L300P/L318F/N151K/N90K/P208A/P217A/Q86G/Q94H/R138H/R169H/T345S). As to the kind of experiment: MHC binding assay (UV-ligand exchange, β2m ELISA, peptide exchange yield). The following applies: MHC class I binding score; binding to HLA-A*02:01 ranged by peptide exchange yield (UV-ligand exchange, β2m ELISA). From the text:
Candidate peptides for T cell based therapies according to the present invention were further tested for their MHC binding capacity (affinity). The individual peptide-MHC complexes were produced by UV-ligand exchange, where a UV-sensitive peptide is cleaved upon UV-irradiation, and exchanged with the peptide of interest as analyzed. Only peptide candidates that can effectively bind and stabilize the peptide-receptive MHC molecules prevent dissociation of the MHC complexes. To determine the yield of the exchange reaction, an ELISA was performed based on the detection of the light chain (β2m) of stabilized MHC complexes. The assay was performed as generally described in Rodenko et al. (Rodenko et al., 2006).
96 well MAXISorp plates (NUNC) were coated over night with 2 ug/ml streptavidin in PBS at room temperature, washed 4× and blocked for 1h at 37° C. in 2% BSA containing blocking buffer. […] Peptide-MHC monomers of the UV-exchange reaction were diluted 100 fold in blocking buffer. Samples were incubated for 1h at 37° C., washed four times, incubated with 2 ug/ml HRP conjugated anti-β2m for 1h at 37° C., washed again and detected with TMB solution that is stopped with […]. Absorption was measured at 450 nm. Candidate peptides that show a high exchange yield (preferably higher than 50%, most preferred higher than 75%) are generally preferred for a generation and production of antibodies or fragments thereof, and/or T cell receptors or fragments thereof, as they show sufficient avidity to the MHC molecules and prevent dissociation of the MHC complexes.
On the technique in general: In an ELISA, binding on a coated surface is turned into a signal by an enzyme label.
Take “87 (ALPEAPAPLLPHIT; listed as Homo sapiens) [compound 87]”: the Peptide exchange entry is given as ““++” (≧20% = ++)”.

As for “88 (FLLVGDLMAV; listed as Homo sapiens) [compound 88]”, the Peptide exchange entry was ““+++” (≧50 = +++)”.

Take “89 (YILPTETIYV; listed as Homo sapiens) [compound 89]”: the Peptide exchange entry is on record as ““++++” (≧75% = ++++)”.

“90 (TLLQIIETV; listed as Homo sapiens) [compound 90]”: the Peptide exchange entry is ““+++” (≧50 = +++)”.

As for “91 (IMQDFPAEIFL; listed as Homo sapiens) [compound 91]”, the Peptide exchange result was ““++++” (≧75% = ++++)”.

For “92 (YLIPFTGIVGL; listed as Homo sapiens) [compound 92]”, the Peptide exchange entry is given as ““++” (≧20% = ++)”.

Turning to “93 (LLQAIKLYL; listed as Homo sapiens) [compound 93]”, the Peptide exchange result is listed as ““++” (≧20% = ++)”.

“94 (YLIDIKTIAI; listed as Homo sapiens) [compound 94]”: the Peptide exchange entry is on record as ““++” (≧20% = ++)”.

Consider “95 (SVIPQIQKV; listed as Homo sapiens) [compound 95]”, for which the Peptide exchange result is listed as ““+++” (≧50 = +++)”.

Turning to “96 (YIFTDNPAAV; listed as Homo sapiens) [compound 96]”, the Peptide exchange entry is ““+++” (≧50 = +++)”.

Turning to “97 (SLINGSFLV; listed as Homo sapiens) [compound 97]”, the Peptide exchange result was ““+++” (≧50 = +++)”.

In the case of “98 (LIIDQADIYL; listed as Homo sapiens) [compound 98]”, the Peptide exchange result is ““+++” (≧50 = +++)”.

“99 (ALVSKGLATV; listed as Homo sapiens) [compound 99]”: the Peptide exchange result is ““++” (≧20% = ++)”.

In the case of “100 (YLLSTNAQL; listed as Homo sapiens) [compound 100]”, the Peptide exchange result is ““++++” (≧75% = ++++)”.

As to “101 (ILVGGGALATV; listed as Homo sapiens) [compound 101]”, the Peptide exchange result was ““+++” (≧50 = +++)”.

Consider “102 (YLFESEGLVL; listed as Homo sapiens) [compound 102]”, for which the Peptide exchange entry is listed as ““+++” (≧50 = +++)”.

In the case of “103 (TLAEEVVAL; listed as Homo sapiens) [compound 103]”, the Peptide exchange result is ““+++” (≧50 = +++)”.

For “104 (STMEQNFLL; listed as Homo sapiens) [compound 104]”, the Peptide exchange result is ““++++” (≧75% = ++++)”.

For “106 (LLYDAVHIVSV; listed as Homo sapiens) [compound 106]”, the Peptide exchange entry is given as ““+++” (≧50 = +++)”.

Consider “107 (FLQPVDDTQHL; listed as Homo sapiens) [compound 107]”, for which the Peptide exchange entry was ““+++” (≧50 = +++)”.

As for “109 (IILSILEQA; listed as Homo sapiens) [compound 109]”, the Peptide exchange result is reported as ““++++” (≧75% = ++++)”.

Consider “110 (FLSQVDFEL; listed as Homo sapiens) [compound 110]”, for which the Peptide exchange result is ““+++” (≧50 = +++)”.

On to “111 (YVWGFYPAEV; listed as Homo sapiens) [compound 111]”, for which the Peptide exchange result is ““+++” (≧50 = +++)”.

For “114 (SLVGEPILQNV; listed as Homo sapiens) [compound 114]”, the Peptide exchange result is listed as ““++” (≧20% = ++)”.

For “115 (AIAGAGILYGV; listed as Homo sapiens) [compound 115]”, the Peptide exchange result was ““++” (≧20% = ++)”.

For the substance “116 (YHIDEEVGF; listed as Homo sapiens) [compound 116]”, the Peptide exchange entry is given as ““+” (≧10% = +)”.

Regarding “117 (ILPDGEDFLAV; listed as Homo sapiens) [compound 117]”, the Peptide exchange entry is ““+++” (≧50 = +++)”.

Regarding “119 (FLYIGDIVSL; listed as Homo sapiens) [compound 119]”, the Peptide exchange result was ““++++” (≧75% = ++++)”.

“120 (ALLGIPLTLV; listed as Homo sapiens) [compound 120]”: the Peptide exchange entry is ““+++” (≧50 = +++)”.

Turning to “121 (GVVDPRAISVL; listed as Homo sapiens) [compound 121]”, the Peptide exchange entry is ““++” (≧20% = ++)”.

As to “122 (FLLAEDDIYL; listed as Homo sapiens) [compound 122]”, the Peptide exchange result is given as ““+++” (≧50 = +++)”.

Take “123 (NLWDLTDASVV; listed as Homo sapiens) [compound 123]”: the Peptide exchange entry is reported as ““+++” (≧50 = +++)”.

“124 (ALYETELADA; listed as Homo sapiens) [compound 124]”: the Peptide exchange entry is on record as ““++” (≧20% = ++)”.

With “125 (VQIHQVAQV; listed as Homo sapiens) [compound 125]”, the Peptide exchange result is ““+++” (≧50 = +++)”.

For “126 (VLAYFLPEA; listed as Homo sapiens) [compound 126]”, the Peptide exchange result is recorded as ““++++” (≧75% = ++++)”.

Turning to “127 (KIGDEPPKV; listed as Homo sapiens) [compound 127]”, the Peptide exchange entry is recorded as ““++” (≧20% = ++)”.

On to “128 (YLFDDPLSAV; listed as Homo sapiens) [compound 128]”, for which the Peptide exchange result is ““++” (≧20% = ++)”.

With “129 (GLLDGGVDILL; listed as Homo sapiens) [compound 129]”, the Peptide exchange result is recorded as ““+++” (≧50 = +++)”.

For the substance “130 (FLWNGEDSALL; listed as Homo sapiens) [compound 130]”, the Peptide exchange entry was ““+++” (≧50 = +++)”.

As to “131 (FVPPVTVFPSL; listed as Homo sapiens) [compound 131]”, the Peptide exchange result was ““++” (≧20% = ++)”.

For “132 (LLVEQPPLAGV; listed as Homo sapiens) [compound 132]”, the Peptide exchange entry is on record as ““+++” (≧50 = +++)”.

Take “133 (KVLSNIHTV; listed as Homo sapiens) [compound 133]”: the Peptide exchange result is ““++” (≧20% = ++)”.

Consider “134 (YLQELIFSV; listed as Homo sapiens) [compound 134]”, for which the Peptide exchange result is ““+++” (≧50 = +++)”.

Regarding “135 (ALSEVDFQL; listed as Homo sapiens) [compound 135]”, the Peptide exchange result was ““+++” (≧50 = +++)”.

Consider “136 (YLADPSNLFVV; listed as Homo sapiens) [compound 136]”, for which the Peptide exchange entry is listed as ““+++” (≧50 = +++)”.

Take “137 (TLVLTLPTV; listed as Homo sapiens) [compound 137]”: the Peptide exchange result is ““++++” (≧75% = ++++)”.

In the case of “138 (YQYPRAILSV; listed as Homo sapiens) [compound 138]”, the Peptide exchange entry is ““+++” (≧50 = +++)”.

Turning to “139 (SVMEVNSGIYRV; listed as Homo sapiens) [compound 139]”, the Peptide exchange result was ““+++” (≧50 = +++)”.

“140 (YMDAPKAAL; listed as Homo sapiens) [compound 140]”: the Peptide exchange result was ““++” (≧20% = ++)”.

Turning to “142 (FLFATPVFI; listed as Homo sapiens) [compound 142]”, the Peptide exchange entry was ““+++” (≧50 = +++)”.

As for “144 (YIMEPSIFNTL; listed as Homo sapiens) [compound 144]”, the Peptide exchange result is listed as ““+++” (≧50 = +++)”.

Consider “145 (FLATSGTLAGI; listed as Homo sapiens) [compound 145]”, for which the Peptide exchange entry is recorded as ““++” (≧20% = ++)”.

Consider “146 (SLATAGDGLIEL; listed as Homo sapiens) [compound 146]”, for which the Peptide exchange entry was ““++” (≧20% = ++)”.
